Patent publication US7462472B2 (priority 2001, dated 2008)

Columns and labels:
[1] = target: CaM34/110-AEDANS/DAB, human CaM mutant [change]/[change] labeled with donor and acceptor (human) (UniProt P0DP23); test: fluorescence (FRET) titration of donor-acceptor labeled CaM34/110 with CyaA1-412
CaM = CaM (Homo sapiens, UniProt P0DP23, T111C/T35C); test: biochemical; format: binding

CyaA1-412, adenylyl cyclase domain (amino acids 1-412) of CyaA, sequence (J7QLC0 1-412): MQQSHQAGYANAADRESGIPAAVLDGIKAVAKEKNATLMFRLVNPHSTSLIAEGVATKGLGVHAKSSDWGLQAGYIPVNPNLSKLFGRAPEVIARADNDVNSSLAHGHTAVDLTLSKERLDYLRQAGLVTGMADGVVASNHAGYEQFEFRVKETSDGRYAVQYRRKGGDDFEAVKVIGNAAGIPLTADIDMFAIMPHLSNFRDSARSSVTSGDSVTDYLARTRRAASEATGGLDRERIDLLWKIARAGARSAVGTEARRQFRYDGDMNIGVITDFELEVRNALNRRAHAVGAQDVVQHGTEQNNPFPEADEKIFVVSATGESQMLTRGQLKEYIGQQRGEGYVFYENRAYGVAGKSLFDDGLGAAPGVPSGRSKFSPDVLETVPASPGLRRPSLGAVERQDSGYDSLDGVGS

| Compound | Kd [1] | Kd (CaM) |
| --- | --- | --- |
| CyaA1-412, adenylyl cyclase domain (amino acids 1-412) of CyaA (from UniProt J7QLC0 1-412) (enzyme) | 10 µM | – |
| CC[C@H](C)[C@H](NC(=O)CNC(=O)[C@H](Cc1ccc(O)cc1)NC(=O)[C@H](CCCCN)NC(=O)[C@@H](NC(=O)[C@H](CC(C)C)NC(=O)[C@H](CC(C)C)NC(=O)[C@H](CC(N)=O)NC(=O)[C@@H](NC(=O)[C@@H](NC(=O)CNC(=O)[C@H](CCCCN)NC(=O)[C@H](CCC(N)=O)NC(=O)[C@H](CCCCN)NC(=O)[C@H](CCC(=O)O)NC(=O)[C@H](CC(C)C)NC(=O)[C@H](CO)NC(=O)[C@@H](N)CC(N)=O)C(C)C)[C@@H](C)O)[C@@H](C)CC)C(=O)N[C@@H](CCC(=O)O)C(=O)O [helix H peptide] | – | 8.8 µM |
